B1: NCK2 (parent)
chain: YVERKNSLKKGSLVKNLKDTLGLG

Variants of: B1
Assay: protein stability index of a GFP-peptide fusion (GPS, HEK-293T) (PSI 1-6); higher = more stable
Details: c terminus: a fixed tail appended
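Note: lentivirally expressed fusions sorted by FACS into six bins by GFP to DsRed ratio, PSI derived from sequencing read proportions per bin multiplied by bin number.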

Protein stability index, by site and new letter:
V14: Q 2.74; P 2.3; N 2.44; M 2.46; Y 1.98; E 2.16; L 2.31; R 2.6; F 1.96; I 2.35; D 2.84; T 2.66; H 1.84; C 2.08; A 2.53; K 2.25
K9: Y 2.28; Q 2.32; W 2.37; H 2.1; T 2.17; D 2.37; N 2.32; C 1.94; A 2.15; L 3.07; V 2.48
K5: N 2.4; H 2.13; G 2.34; P 1.89; E 2.92; D 2.26; R 2.52; A 2.12; S 2.24; W 2.57; M 1.79; F 2.58; V 2.2; I 1.99; C 1.75
L23: V 2.57; H 2.02; R 2.89; N 2.9; S 3.21; Y 1.94; F 2.52; K 2.71; I 2.37; P 2.97; T 2.64; W 2.44; E 2.86; M 2.7
L17: P 2.13; Q 3.16; A 2.62; D 2.92; R 2.58; V 2.8; T 2.79; C 2.55; G 2.88; K 3; E 2.85; S 2.41; Y 2.73; F 1.87; H 2.34; N 2.77
R4: Y 1.33; I 1.81; M 1.62; G 2.19; A 2.23; K 2.46; S 2.26; D 2.67; T 1.78; W 1.57; N 2.48; H 2.6
D19: N 2.84; Q 2.21; Y 1.49; F 2.24; S 2.16; W 2.35; K 1.91; L 1.4; V 1.78; T 1.83; I 2.01; A 2; G 1.92; E 2.43; H 1.47
K15: D 2.7; P 1.99; T 2.56; Q 2; V 1.94; N 2.41; F 1.69; I 1.77; H 2.23; S 2.26; C 2.12; L 2.36; G 2.49; Y 1.91
G24: H 2.43; I 1.8; P 2.28; D 2.8; N 1.98; Q 2.59; A 2.36; V 1.67; Y 1.67; M 2.09; S 2.58; C 2.2; W 1.97; F 1.48; K 2.13; T 2.36; R 2.19; E 3.21
Y1: A 3.59; R 3.18; S 3.3; H 4.01; Q 4.01; I 3.03; D 4.13; N 3.71; V 3.41; T 3.65; M 3.64; G 3.92; F 1.81; W 2.29
G11: F 2.69; H 2.02; A 2.18; Q 3.13; K 2.9; Y 1.59; V 2.42; C 2.09; W 1.93; S 2.43; L 1.87; M 1.8
K10: C 2.29; Q 2.59; L 2.17; F 2.48; D 2.56; N 1.83; T 1.82; P 1.88; H 1.82; R 2.17

— the supplement of paper PMC10567573
